Read-outs that look alike come from different tables or passages of the source.
Experiments:
[1] = biological target: T1, human plasma kallikrein (human pKal) (Homo sapiens, UniProt P03952); test: Ki,app against human pKal by steady state enzyme kinetics (in vitro protease cleavage assay, Pro-Phe-Arg-aminomethylcoumarin substrate); format: biochemical
T1 construct: two disulfide linked polypeptides; a heavy chain of approximately 52 kDa and a catalytic domain of approximately 34 kDa; host or cells: human plasma
Text: The inhibition constant (Ki) provides a measure of inhibitor potency; it is the concentration of inhibitor required to reduce enzyme activity by half and is not dependent on enzyme or substrate concentrations. The apparent Ki (Ki,app) is obtained at different substrate concentrations by measuring the inhibitory effect of different concentrations of inhibitor (e.g., inhibitory binding protein) on the extent of the reaction (e.g., enzyme activity); fitting the change in pseudo-first order rate constant as a function of inhibitor concentration to the Morrison equation (Equation 1) yields an estimate of the apparent Ki value. The Ki is obtained from the y-intercept extracted from a linear regression analysis of a plot of Ki,app versus substrate concentration.
Where v=measured velocity; v0=velocity in the absence of inhibitor; Ki,app=apparent inhibition constant; I=total inhibitor concentration; and E=total enzyme concentration.
The sequence of human plasma kallikrein that was used in selections and subsequent screening of binding proteins is shown below (accession number NP_000883.2). The human plasma kallikrein (86 kDa) that was used was purified from human plasma and activated with factor XIIa by a commercial vendor. Factor XIIa activates prekallikrein by cleaving the polypeptide sequence at a single site (between Arg371-Ile372, cleavage site marked by “/” in the sequence below) to generate active plasma kallikrein, which then consists of two disulfide linked polypeptides; a heavy chain of approximately 52 kDa and a catalytic domain of approximately 34 kDa [Colman and Schmaier, (1997) “Contact System: A Vascular Biology Modulator With Anticoagulant, Profibrinolytic, Antiadhesive, and Proinflammatory Attributes” Blood, 90, 3819-3843]
These antibodies were produced as Fab fragments in small scale (˜20 μg) and tested for inhibition against human pKal in an in vitro protease cleavage assay using Pro-Phe-Arg-aminomethylcoumarin as the synthetic peptide substrate. […] Five antibodies were then expressed in 293T cells and purified by protein A sepharose chromatography. The antibodies were analyzed by SDS-PAGE to determine which of the inhibitory mutants are not cleaved by the host cell protease(s) (data not shown).

mouse pKal = biological target: T2, mouse pKal (Mus musculus, UniProt P26262); test: Ki,app against mouse pKal; format: biochemical; conditions: mouse; IgG; Table 14; read-out: < nM Ki, app against rodent pKal
T2 construct: active plasma kallikrein (pkal) has the single polypeptide chain cleaved at a single position
Protocol: (§1) Fourth, antibodies were tested for their ability to inhibit pKal from other species, besides human, where the amino acid sequence of pKal has been determined in order to identify amino acids that may account for the differences in inhibition.
Antibodies that inhibit the activity of pKal either bind near the active site and preclude substrate interactions (competitive inhibitors) or that bind away from the active site and induce allosteric changes in the structure of the active site (noncompetitive inhibitors).

rat pKal = biological target: T3, rat pKal (Rattus norvegicus, UniProt P14272); test: Ki,app against rat pKal; format: biochemical; conditions: IgG, Table 14, read-out: < nM Ki, app against rodent pKal
T3 construct: active plasma kallikrein (pkal) has the single polypeptide chain cleaved at a single position
Protocol: as §1

prekallikrein = prekallikrein (Homo sapiens, UniProt P03952); test: Surface plasmon resonance (SPR) assay for binding to prekallikrein; conditions: IgG; Table 14
Protocol: Antibodies that bound prekallikrein may be rendered inaccessible towards active plasma kallikrein inhibition and could substantially increase the in vivo dose required for efficacy. […] Specifically, human IgGs (X81-B01, M162-A04 (R84-H05); M160-G12 (R84-D02); and M142-H08) were captured on a CM5 chip using an anti-human Fc surface and 100 nM of plasma kallikrein or 100 nM or 500 nM prekallikrein. The prekallikrein was treated with aprotinin-sepharose to remove active plasma kallikrein.

[2] = test system: fXIa, plasmin, and trypsin; test: Specificity with respect to other serine proteases; format: biochemical; conditions: IgG; Table 14
bradykinin generation = test: Inhibition of bradykinin generation; format: biochemical; conditions: IgG; Table 14
pKal [3] = biological target: T4, pKal (Homo sapiens, UniProt P03952); test: Inhibition of pKal in presence of prekallikrein; format: biochemical; conditions: IgG; Table 14
T4 construct: two disulfide linked polypeptides; a heavy chain of approximately 52 kDa and a catalytic domain of approximately 34 kDa; host or cells: human plasma

pKal [4] = biological target: T4, pKal; test: Competition for binding with aprotinin; conditions: IgG; Table 14
Text: The region of pKal bound by selected anti-pKal antibodies was investigated using several methods. First, competition assays were used to determine whether the antibodies competed for binding to pKal with known active site-directed inhibitors. Second, antibodies were grouped according to whether they were inhibitors or just binders to pKal. Third, epitopes were investigated using synthetic peptides and peptidic structures based on the sequence and 3-dimensional structure of pKal. These peptidic structures are called “CLIPS” (Chemically Linked Peptides on Scaffolds) and the testing was performed by a fee for service company called Pepscan.

pKal [5] = biological target: T4, pKal; test: BIACORE SPR competition with EPI-KAL2 for binding pKal; conditions: IgG captured on chip, pKal 100 nM, 1 μM EPI-KAL2
Protocol: (§2) FIG. 7A depicts the EPI-KAL2 competition for X81-B01 binding pKal. X81-B01 (IgG) was captured on an anti-human Fc fragment specific surface of a CM5 BIACORE® chip. pKal (100 nM) was flowed over the surface in the presence (lower sensorgram in the figure) or absence of 1 μM EPI-KAL2 (upper sensorgram in the figure).
as §2, with “7B” for “7A”, “X67-D03” for “X81-B01”, “Biacore” for “BIACORE®”
Using a BIACORE® SPR assay antibodies of interest were tested for competion with a known active site inhibitor of pKal. EPI-KAL2 is potent (Ki,app=0.1 nM) active site inhibitor of pKal and a Kunitz domain inhibitor based on the first domain of tissue factor pathway inhibitor (Markland (1996) Iterative optimization of high-affinity protease inhibitors using phage display. 2. Plasma kallikrein and thrombin, Biochemistry 35(24):8058-67). Kunitz domains are known active site inhibitors of serine proteases, such as pKal.
As shown in FIGS. 7A-7B, the antibodies X81-B01 and X67-D03 were competed for binding to pKal in the presence or EPI-KAL2.

[6] = test system: pKal from different species; test: Kallikrein activity in activated citrated plasma of different species; format: biochemical; conditions: all the species except for pig
Text: (§3) All available sequence of pKal were obtained from public databases and aligned using ClustalW and regions were highlighted based on solvent accessibility, contact with an active site Kunitz inhibitor, and those peptides identified by CLIPS analysis (FIGS. 9A-9C). Citrated plasma from each of these species was obtained and activated using a commercially available prekallikrein activator (from Enzyme Research Laboratories) according to the instructions of the manufacturer. Kallikrein activity was then measured in each of the samples in the presence or absence of […]-B01.

pig pKal = test: Kallikrein activity in activated citrated plasma, pig; format: biochemical
Text: as §3

frog pKal = test: Kallikrein activity in activated citrated plasma, frog; format: biochemical
Text: as §3

[7] = biological target: T1, human plasma kallikrein (human pKal); test: Ki,app against human pKal by steady state enzyme kinetics (in vitro protease cleavage assay, Pro-Phe-Arg-aminomethylcoumarin substrate); format: biochemical; conditions: IgG

T1 sequence (P03952 391-638 limits assumed): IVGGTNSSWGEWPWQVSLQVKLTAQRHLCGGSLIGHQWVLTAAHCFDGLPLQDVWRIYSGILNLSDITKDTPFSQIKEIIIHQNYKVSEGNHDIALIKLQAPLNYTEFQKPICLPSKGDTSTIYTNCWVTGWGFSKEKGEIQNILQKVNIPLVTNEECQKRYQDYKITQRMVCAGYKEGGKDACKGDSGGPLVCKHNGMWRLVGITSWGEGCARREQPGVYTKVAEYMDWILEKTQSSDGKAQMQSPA
T1 sequence (P03952 20-390 partner limits assumed): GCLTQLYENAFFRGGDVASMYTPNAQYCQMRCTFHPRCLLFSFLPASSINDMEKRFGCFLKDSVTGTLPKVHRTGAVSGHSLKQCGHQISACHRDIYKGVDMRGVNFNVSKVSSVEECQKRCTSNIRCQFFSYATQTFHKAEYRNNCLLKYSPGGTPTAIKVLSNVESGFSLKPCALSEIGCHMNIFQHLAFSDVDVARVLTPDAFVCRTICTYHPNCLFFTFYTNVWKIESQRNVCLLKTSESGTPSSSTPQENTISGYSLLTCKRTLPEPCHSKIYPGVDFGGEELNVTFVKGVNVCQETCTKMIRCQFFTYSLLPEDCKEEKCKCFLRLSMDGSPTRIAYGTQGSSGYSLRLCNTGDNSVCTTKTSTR
T4 sequence (P03952 391-638 limits assumed): as the sequence (P03952 391-638 limits assumed) above
T4 sequence (P03952 20-390 partner limits assumed): as the sequence (P03952 20-390 partner limits assumed) above
T3 sequence (P14272 391-638 limits assumed): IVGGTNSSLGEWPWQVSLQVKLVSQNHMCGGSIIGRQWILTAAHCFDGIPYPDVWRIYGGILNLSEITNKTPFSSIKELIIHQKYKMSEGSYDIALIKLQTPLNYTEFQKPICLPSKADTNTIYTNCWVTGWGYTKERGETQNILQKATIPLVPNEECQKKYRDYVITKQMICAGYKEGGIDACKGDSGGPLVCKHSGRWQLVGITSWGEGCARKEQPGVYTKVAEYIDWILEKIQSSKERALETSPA
T3 sequence (P14272 20-390 partner limits assumed): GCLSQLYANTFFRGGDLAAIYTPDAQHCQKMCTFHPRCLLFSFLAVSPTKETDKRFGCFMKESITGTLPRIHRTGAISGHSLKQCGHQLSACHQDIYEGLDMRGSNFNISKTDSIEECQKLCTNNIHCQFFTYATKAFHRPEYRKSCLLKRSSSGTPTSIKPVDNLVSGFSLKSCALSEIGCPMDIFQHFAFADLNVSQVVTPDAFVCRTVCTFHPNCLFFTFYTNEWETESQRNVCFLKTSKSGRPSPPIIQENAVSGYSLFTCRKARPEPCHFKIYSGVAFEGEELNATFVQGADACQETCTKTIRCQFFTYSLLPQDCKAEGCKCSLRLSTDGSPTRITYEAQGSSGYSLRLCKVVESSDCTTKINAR
Chain of pig pKal (as listed by the source): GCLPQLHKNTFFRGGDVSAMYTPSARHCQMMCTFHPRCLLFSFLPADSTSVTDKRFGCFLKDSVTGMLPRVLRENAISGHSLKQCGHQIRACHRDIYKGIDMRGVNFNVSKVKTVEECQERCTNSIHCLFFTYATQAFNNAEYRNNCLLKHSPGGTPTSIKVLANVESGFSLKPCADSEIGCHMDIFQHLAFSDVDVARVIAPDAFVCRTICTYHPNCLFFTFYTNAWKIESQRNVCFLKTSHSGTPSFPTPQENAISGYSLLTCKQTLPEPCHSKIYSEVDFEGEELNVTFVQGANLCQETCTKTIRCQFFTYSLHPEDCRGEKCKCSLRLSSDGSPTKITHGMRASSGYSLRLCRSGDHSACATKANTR
Chain of pig pKal (as listed by the source): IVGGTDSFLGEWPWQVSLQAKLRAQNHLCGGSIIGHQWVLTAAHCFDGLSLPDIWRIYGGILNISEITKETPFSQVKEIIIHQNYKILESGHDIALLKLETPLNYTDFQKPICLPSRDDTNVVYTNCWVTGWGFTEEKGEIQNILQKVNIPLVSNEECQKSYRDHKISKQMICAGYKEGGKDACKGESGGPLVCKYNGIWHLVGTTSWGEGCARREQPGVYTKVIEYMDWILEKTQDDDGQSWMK
T2 sequence (P26262 391-638 limits assumed): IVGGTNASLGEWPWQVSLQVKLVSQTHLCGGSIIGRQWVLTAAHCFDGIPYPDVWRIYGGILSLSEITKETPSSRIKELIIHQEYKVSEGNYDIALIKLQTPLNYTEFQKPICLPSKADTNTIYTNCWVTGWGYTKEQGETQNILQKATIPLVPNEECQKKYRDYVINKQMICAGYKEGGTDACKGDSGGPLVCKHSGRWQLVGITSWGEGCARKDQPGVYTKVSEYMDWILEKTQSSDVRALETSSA
T2 sequence (P26262 20-390 partner limits assumed): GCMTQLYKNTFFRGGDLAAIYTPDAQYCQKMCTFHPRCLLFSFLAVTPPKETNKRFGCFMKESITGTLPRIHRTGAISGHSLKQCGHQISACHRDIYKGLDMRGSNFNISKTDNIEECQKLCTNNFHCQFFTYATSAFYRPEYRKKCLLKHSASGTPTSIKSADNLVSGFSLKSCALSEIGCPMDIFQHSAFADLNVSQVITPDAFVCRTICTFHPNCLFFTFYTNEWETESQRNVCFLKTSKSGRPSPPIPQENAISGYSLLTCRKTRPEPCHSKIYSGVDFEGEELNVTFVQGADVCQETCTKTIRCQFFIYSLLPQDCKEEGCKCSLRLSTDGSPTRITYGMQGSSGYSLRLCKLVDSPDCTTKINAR
Chain of prekallikrein (P03952 20-638): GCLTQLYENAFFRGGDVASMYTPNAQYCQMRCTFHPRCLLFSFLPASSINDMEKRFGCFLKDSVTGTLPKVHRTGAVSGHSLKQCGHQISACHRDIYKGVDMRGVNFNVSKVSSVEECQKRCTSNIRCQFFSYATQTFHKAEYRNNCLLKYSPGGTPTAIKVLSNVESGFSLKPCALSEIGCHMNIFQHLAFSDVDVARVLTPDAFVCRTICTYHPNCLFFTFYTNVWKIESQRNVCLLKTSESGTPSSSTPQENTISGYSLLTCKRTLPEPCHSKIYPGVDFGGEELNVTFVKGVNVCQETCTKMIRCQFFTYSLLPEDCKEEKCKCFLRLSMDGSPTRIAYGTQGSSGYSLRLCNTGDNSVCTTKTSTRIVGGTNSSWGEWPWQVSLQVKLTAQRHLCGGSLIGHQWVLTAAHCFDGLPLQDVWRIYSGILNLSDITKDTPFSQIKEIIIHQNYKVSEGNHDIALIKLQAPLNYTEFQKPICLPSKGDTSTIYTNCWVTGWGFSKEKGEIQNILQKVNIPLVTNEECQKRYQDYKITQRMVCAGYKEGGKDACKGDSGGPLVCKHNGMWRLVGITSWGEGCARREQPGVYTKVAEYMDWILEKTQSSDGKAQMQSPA

Ki ([1]; Table 6, read-out: Human pKal (Ki, app nM)): 0.2 nM
Ki ([1]; Table 15, read-out: human Ki, app): 0.1 nM
Ki (mouse pKal): 0.011 nM
Ki (rat pKal): 0.14 nM
Does not bind prekallikrein (prekallikrein): no
Inhibits pKal in presence of prekallikrein (pKal [3]): yes
Competition for binding with aprotinin (pKal [4]): yes
competition for binding to pKal in the presence of EPI-KAL2 (pKal [5]): competed
Ki ([7]; Table 11, read-out: Ki, app): 0.2 nM
Ki ([7]; Table 14, read-out: < nM Ki, app against human pKal): 0.2 nM
Ki ([7]; pKal, germlined and sequence optimized for CHO cell expression, read-out: Ki,app): ~0.2 nM
B1: X81-B01: codon optimized and germlined version of X63-G06 as a full length human IgG produced in CHO cells (antibody, chains of the INN, looked up, V domains shown)
VH: EVQLLESGGGLVQPGGSLRLSCAASGFTFSHYIMMWVRQAPGKGLEWVSGIYSSGGITVYADSVKGRFTISRDNSKNTLYLQMNSLRAEDTAVYYCAYRRIGVPRRDEFDIWGQGTMVTVSS
VL: DIQMTQSPSTLSASVGDRVTITCRASQSISSWLAWYQQKPGKAPKLLIYKASTLESGVPSRFSGSGSGTEFTLTISSLQPDDFATYYCQQYNTYWTFGQGTKVEIK
modifications: IgG
notes: codon optimized and germlined version of X63-G06 as a full length human IgG produced in CHO cells
Specific inhibitor with respect to fXIa, plasmin, and trypsin [2]: yes
Inhibits bradykinin generation (bradykinin generation): yes
inhibition of pKal from different species [6]: inhibited
inhibition of pig pKal (pig pKal): lack of inhibition
inhibition of frog pKal (frog pKal): inhibited

Reference: patent publication US20100183625A1, “Treatment of Mucositis with Kallikrein Inhibitors” (Dyax Corp., priority 2009, published 2010)
